Data on one molecule can be found in US20210025886A1 (Alexion, published 2021).

This test deals with T1, complement fragment C3a (Complement Technologies cat # A118) (human, UniProt P01024 672-748).
T1 construct: domain: C3a; also called purified C3a
Briefly: TR-FRET sandwich, purified C3a titrated from 66.6 nM, antibodies 50 nM each. As to the method:
Labeled antibodies were then used to detect C3a in a sample that also contained intact C3 and C3b fragments. […] For the detection assay, complement C3 and fragments C3a and C3b were purchased from Complement Technologies (cat # A113c, A118, and A114, respectively). They were aliquoted and stored at −80° C. Each complement protein was titrated individually or as a mixture in assay buffer (10 mM HEPES pH 7.4, 0.1% BSA) at final concentrations of 66.6 nM serially diluted. Detection antibodies were combined in assay buffer to make a C3a detection mixture at final concentrations of 50 nM each in assay. Then, 15 μl of the appropriate C3 reagent was added to the appropriate wells of a white 384 well Optiplate (Perkin Elmer Cat. #600-7290). To each well, 15 μl antibody detection mix was then added. The plate was spun at 4000 RPM for 20 seconds and read on a Paradigm Spectramax instrument using the Cisbio htrf cartridge (excite at 340 nm and emit at 615 nm and 665 nm). The plate was read periodically and the signal calculated by dividing the 665 signal by the 615 signal and multiplying by 10000.
A general note: In TR-FRET formats the signal depends on donor and acceptor labels being close together.

T1 sequence (P01024 672-748 limits assumed): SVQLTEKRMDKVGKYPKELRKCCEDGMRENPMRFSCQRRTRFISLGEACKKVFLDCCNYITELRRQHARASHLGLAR

B1: C3a antibody YHP133 (antibody, human IgG1, kappa, V domains shown)
VH: EVQLQQSGAELVRPGASVKLSCTASGFNIKDSLIHWVKQRPEQGLEWIGWIDPDDGETKYAPKFQDKATITADTSSNTAYLQFSSLTSEDTAIYYCAGRSGEGYFDYWGQGTTVTVSS
VL: DIVMTQSPATLSVTPGDRVSLSCRASQSISDYLHWYQQKSHESPRLLIKYASQSISGIPSRFSGSGSGSDFTLSINSVEPEDVGVYYCQNGHSFPLTFGAGTKVEIKR
modifications: labeled with d2 dye (Cisbio d2 labeling kit); site not stated
notes: Synthesized and purified according to standard procedures; used d2-labeled in the FRET assays; also called the other C3a antibody; acceptor antibody
Turning to B1, the binding result is reported as “binds”.
